Assay results taken from the supplement of paper PMC11316812.
± gives the standard deviation of the averaged measurements.

Experiments:
MCF7 = assay: percentage of EdU-negative (G0-arrested) nuclei per well, 72 h; higher = more G0 arrest; conditions: reference: sequence is the full UniProt precursor, the tested protein was the secreted form or ectodomain
hTERT-HMEC = assay: as above; conditions: reference: sequence is the full UniProt precursor, the tested protein was the secreted form or ectodomain
[1] = protein concentration 0.0225 µM
[2] = protein concentration 0.0357143 µM
[3] = protein concentration 0.357143 µM
[4] = protein concentration 0.03125 µM
[5] = protein concentration 0.3125 µM
[6] = protein concentration 0.023405 µM
[7] = protein concentration 0.23405 µM
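Note: secreted proteins added to cultured cells, EdU pulse at the end, nuclei found by Hoechst imaging, EdU status from nuclear versus surrounding ring intensity ratio, PBS as neutral control.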

**Q.** Which “percentage of EdU-negative” value (MCF7; [1]) does the source give for “MVAGSDAGRALGVLSVVCLLHCFGFISCFSQQIYGVVYGNVTFHVPSNVPLKEVLWKKQKDKVAELENSEFRAFSSFKNRVYLDTVSGSLTIYNLTSSDEDEYEMESPNITDTMKFFLYVLESLPSPTLTCALTNGSIEVQCMIPEHYNSHRGLIMYSWDCPMEQCKRNSTSIYFKMENDLPQKIQCTLSNPLFNTTSSIILTTCIPSSGHSRHRYALIPIPLAVITTCIVLYMNGILKCDRKPDRTNSN” here?
**A.** The value was 27.3 ± 0.7%.

**Q.** And the “percentage of EdU-negative” value (MCF7; protein concentration 0.225 µM)?
**A.** Its value is 26.7 ± 1.6%.

**Q.** And the “percentage of EdU-negative” value (hTERT-HMEC; [1])?
**A.** The value was 5.39 ± 0.14%.

**Q.** What about the “percentage of EdU-negative” value (hTERT-HMEC; protein concentration 0.225 µM) of the same sequence?
**A.** Its value is 5.59 ± 0.33%.

**Q.** What does the source list for “MGPPPGAGVSCRGGCGFSRLLAWCFLLALSPQAPGSRGAEAVWTAYLNVSWRVPHTGVNRTVWELSEEGVYGQDSPLEPVAGVLVPPDGPGALNACNPHTNFTVPTVWGSTVQVSWLALIQRGGGCTFADKIHLAYERGASGAVIFNFPGTRNEVIPMSHPGAVDIVAIMIGNLKGTKILQSIQRGIQVTMVIEVGKKHGPWVNHYSIFFVSVSFFIITAATVGYFIFYSARRLRNARAQSRKQRQLKADAKKAIGRLQLRTLKQGDKEIGPDGDSCAVCIELYKPNDLVRILTCNHIFHKTCVDPWLLEHRTCPMCKCDILKALGIEVDVEDGSVSLQVPVSNEISNSASSHEEDNRSETASSGYASVQGTDEPPLEEHVQSTNESLQLVNHEANSVAVDVIPHVDNPTFEEDETPNQETAVREIKS [Q8TEB7]”?
**A.** percentage of EdU-negative (MCF7; [2]): 24.4 ± 1.5%; percentage of EdU-negative (MCF7; [3]): 31.5 ± 1.1%; percentage of EdU-negative (hTERT-HMEC; [2]): 4.65 ± 0.73%; percentage of EdU-negative (hTERT-HMEC; [3]): 10.2 ± 2.7%

**Q.** How did the “percentage of EdU-negative” value (MCF7; [1]) turn out when “MFHVSFRYIFGLPPLILVLLPVASSDCDIEGKDGKQYESVLMVSIDQLLDSMKEIGSNCLNNEFNFFKRHICDANKEGMFLFRAARKLRQFLKMNSTGDFDLHLLKVSEGTTILLNCTGQVKGRKPAALGEAQPTKSLEENKSLKEQKKLNDLCFLKRLLQEIKTCWNKILMGTKEH” was run?
**A.** The value was 27.6 ± 3.5%.

**Q.** And the “percentage of EdU-negative” value (MCF7; [4])?
**A.** The value was 26 ± 0.34%.

**Q.** And the “percentage of EdU-negative” value (MCF7; protein concentration 0.225 µM)?
**A.** The value was 25.3 ± 1.1%.

**Q.** And the “percentage of EdU-negative” value (MCF7; [5])?
**A.** Its value is 25.9 ± 0.41%.

**Q.** What about the “percentage of EdU-negative” value (hTERT-HMEC; [1]) of the same sequence?
**A.** The value was 5.22 ± 1%.

**Q.** And the “percentage of EdU-negative” value (hTERT-HMEC; [4])?
**A.** The value was 5.03 ± 1.4%.

**Q.** And the “percentage of EdU-negative” value (hTERT-HMEC; protein concentration 0.225 µM)?
**A.** Its value is 6.63 ± 0.069%.

**Q.** What about the “percentage of EdU-negative” value (hTERT-HMEC; [5]) of the same sequence?
**A.** The value was 4.47 ± 0.49%.

**Q.** Which results are given for “MKTPWKVLLGLLGAAALVTIITVPVVLLNKGTDDATADSRKTYTLTDYLKNTYRLKLYSLRWISDHEYLYKQENNILVFNAEYGNSSVFLENSTFDEFGHSINDYSISPDGQFILLEYNYVKQWRHSYTASYDIYDLNKRQLITEERIPNNTQWVTWSPVGHKLAYVWNNDIYVKIEPNLPSYRITWTGKEDIIYNGITDWVYEEEVFSAYSALWWSPNGTFLAYAQFNDTEVPLIEYSFYSDESLQYPKTVRVPYPKAGAVNPTVKFFVVNTDSLSSVTNATSIQITAPASMLIGDHYLCDVTWATQERISLQWLRRIQNYSVMDICDYDESSGRWNCLVARQHIEMSTTGWVGRFRPSEPHFTLDGNSFYKIISNEEGYRHICYFQIDKKDCTFITKGTWEVIGIEALTSDYLYYISNEYKGMPGGRNLYKIQLSDYTKVTCLSCELNPERCQYYSVSFSKEAKYYQLRCSGPGLPLYTLHSSVNDKGLRVLEDNSALDKMLQNVQMPSKKLDFIILNETKFWYQMILPPHFDKSKKYPLLLDVYAGPCSQKADTVFRLNWATYLASTENIIVASFDGRGSGYQGDKIMHAINRRLGTFEVEDQIEAARQFSKMGFVDNKRIAIWGWSYGGYVTSMVLGSGSGVFKCGIAVAPVSRWEYYDSVYTERYMGLPTPEDNLDHYRNSTVMSRAENFKQVEYLLIHGTADDNVHFQQSAQISKALVDVGVDFQAMWYTDEDHGIASSTAHQHIYTHMSHFIKQCFSLP”?
**A.** percentage of EdU-negative (MCF7; protein concentration 0.009 µM): 24.2 ± 0.48%; percentage of EdU-negative (MCF7; [6]): 24.2 ± 0.77%; percentage of EdU-negative (MCF7; protein concentration 0.09 µM): 26.5 ± 0.49%; percentage of EdU-negative (MCF7; [7]): 29.2 ± 1.1%; percentage of EdU-negative (hTERT-HMEC; protein concentration 0.009 µM): 4.55 ± 0.2%; percentage of EdU-negative (hTERT-HMEC; [6]): 5.17 ± 1.7%; percentage of EdU-negative (hTERT-HMEC; protein concentration 0.09 µM): 6.07 ± 0.24%; percentage of EdU-negative (hTERT-HMEC; [7]): 6.28 ± 0.073%

**Q.** With “MQGPWVLLLLGLRLQLSLGIIPVEEENPDFWNRQAAEALGAAKKLQPAQTAAKNLIIFLGDGMGVSTVTAARILKGQKKDKLGPETFLAMDRFPYVALSKTYSVDKHVPDSGATATAYLCGVKGNFQTIGLSAAARFNQCNTTRGNEVISVMNRAKKAGKSVGVVTTTRVQHASPAGAYAHTVNRNWYSDADVPASARQEGCQDIATQLISNMDIDVILGGGRKYMFPMGTPDPEYPDDYSQGGTRLDGKNLVQEWLAKHQGARYVWNRTELLQASLDPSVTHLMGLFEPGDMKYEIHRDSTLDPSLMEMTEAALLLLSRNPRGFFLFVEGGRIDHGHHESRAYRALTETIMFDDAIERAGQLTSEEDTLSLVTADHSHVFSFGGYPLRGSSIFGLAPGKARDRKAYTVLLYGNGPGYVLKDGARPDVTESESGSPEYRQQSAVPLDGETHAGEDVAVFARGPQAHLVHGVQEQTFIAHVMAFAACLEPYTACDLAPRAGTTDAAHPGPSVVPALLPLLAGTLLLLGTATAP” as the sequence, how does the “percentage of EdU-negative” value (MCF7; [1]) read?
**A.** The value was 23.9 ± 3.7%.

**Q.** And the “percentage of EdU-negative” value (MCF7; protein concentration 0.225 µM)?
**A.** The value was 27.2 ± 0.72%.

**Q.** And the “percentage of EdU-negative” value (hTERT-HMEC; [1])?
**A.** Its value is 4.62 ± 0.18%.

**Q.** And the “percentage of EdU-negative” value (hTERT-HMEC; protein concentration 0.225 µM)?
**A.** The value was 5.34 ± 0.29%.
